What is called Kd is the equilibrium constant for the complex coming apart. Broadly, the koff is the rate constant with which the complex falls apart. Low readings indicate slow dissociation, high ones fast dissociation. The term kon denotes the rate constant with which the complex forms. One may read the EC50 as the concentration giving half of the maximal effect. Low values mean greater potency, high ones weaker potency.

Assay [1] addresses T1, HUMAN B7H3 (Biacore analyte) (human, UniProt Q5ZPR3 29-461, limits assumed).
T1 construct: also called hB7H3
T1 sequence (looked up): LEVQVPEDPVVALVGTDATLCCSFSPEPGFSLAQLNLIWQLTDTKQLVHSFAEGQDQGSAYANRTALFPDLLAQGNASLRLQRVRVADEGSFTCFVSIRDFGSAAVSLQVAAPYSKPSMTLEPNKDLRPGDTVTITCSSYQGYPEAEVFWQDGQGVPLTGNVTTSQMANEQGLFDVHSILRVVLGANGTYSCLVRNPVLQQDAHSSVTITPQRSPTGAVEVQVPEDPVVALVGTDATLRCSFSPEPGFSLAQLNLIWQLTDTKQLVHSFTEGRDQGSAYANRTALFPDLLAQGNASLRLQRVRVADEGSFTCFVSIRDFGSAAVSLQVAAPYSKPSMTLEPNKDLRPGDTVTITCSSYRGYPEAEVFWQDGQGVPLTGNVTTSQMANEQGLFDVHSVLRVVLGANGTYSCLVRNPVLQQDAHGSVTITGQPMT
Kind of assay: SPR, Biacore 8K, antibody captured, B7H3 as analyte, 1:1 binding. In general terms: SPR reads the build-up and loss of mass on a sensor chip optically.

In assay [2] the target is T2, human CD276 protein (human, UniProt Q5ZPR3 29-534).
T2 construct: whole, on cells; for SKOV3 and the other cancer lines the protein is the cells' own; also called B7-H3; B7H3
T2 sequence (looked up): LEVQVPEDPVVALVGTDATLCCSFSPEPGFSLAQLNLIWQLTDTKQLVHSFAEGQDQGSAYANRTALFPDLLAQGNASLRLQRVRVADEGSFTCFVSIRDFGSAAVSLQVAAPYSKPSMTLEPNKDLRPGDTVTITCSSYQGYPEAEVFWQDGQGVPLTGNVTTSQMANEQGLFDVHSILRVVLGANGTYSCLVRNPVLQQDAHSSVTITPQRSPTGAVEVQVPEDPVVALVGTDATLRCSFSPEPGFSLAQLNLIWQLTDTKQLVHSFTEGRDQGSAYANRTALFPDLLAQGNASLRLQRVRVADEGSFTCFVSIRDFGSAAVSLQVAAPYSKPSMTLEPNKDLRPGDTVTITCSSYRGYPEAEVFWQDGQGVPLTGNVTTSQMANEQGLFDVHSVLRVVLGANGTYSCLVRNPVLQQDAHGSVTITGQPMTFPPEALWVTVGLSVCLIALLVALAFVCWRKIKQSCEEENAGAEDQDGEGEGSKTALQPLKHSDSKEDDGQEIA
Kind of assay: FACS on SKOV3 cells. In short, it runs like this:
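Human IgG1 chimeric antibodies were tested for binding to trypsin-detached SKOV3 ovarian cancer cells by flow cytometry, with cells washed in FACS buffer and kept in the dark before acquisition. Titration read-out was MFI plotted against antibody concentration (nM).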

Assay [3] has as its target T2, human CD276 protein. Kind of assay: cell-based or functional assay.
Assay [4] deals with T1, HUMAN B7H3 (Biacore analyte). Kind of assay: SPR, Biacore 8K, antibody captured, B7H3 as analyte, 1:1 binding. The source holds these as a separate data set.
Assay [5] concerns the target T2, human CD276 protein. Kind of assay: cell-based or functional assay. The source holds these as a separate data set.
For assay [6], the target named is T2, human CD276 protein. Kind of assay: cell-based or functional assay. The source holds these as a separate data set.
Assay [7] has as its target T2, human CD276 protein. Kind of assay: FACS titration on SKOV3 cells (MFI against Conc. (nM)); unit taken from the concentration axis. From the text: Sequences of 31 mouse antibodies from Table 5 were selected to generate and produce human IgG1 chimeric antibodies. The binding affinity of these antibodies and bench mark antibody, Enoblituzumab (see U.S. Pat. No. 8,802,091, MGA271, specifically with a construct designated as hBRCA84D-2) and MGC018 (an antibody-drug-conjugate, in which the mAb MGA017 (human IgG1) is conjugated via a cleavable linker to the prodrug seco-DUocarmycin hydroxyBenzamide Azaindole (DUBA), an alkylating agent that can damage DNA in both dividing and non-dividing cells, thereby causing cell death) with human patient derived ovarian cancer cell line, SKOV3, was determined by FACS analysis.
1. Digested cells using Trypsin (1×); Centrifuged the harvested cells at 300 g for 3 min and discarding the supernatant. […] 2. Washed the cells 2 times with FACS buffer by centrifuging at 300 g for 3 min and discarding the supernatant. [0445] 3. […] Kept the cells in dark for FACS analysis.

Like-named read-outs stand apart in the source and are kept apart here.

B1: 10-G6-C4-B2 (human IgG1 chimeric antibody) (antibody, V domains shown)
VH: EVQLVESGGGLVQPGGSLRLSCATSGFTLSDYYMSWVRQPPGKAPEWLGFMRNKANGYTTEYSASVRGRFTISRDTSQSIIYLQMNTLRAEDGATYYCVRDRDGRPFAYWGQGTLVTVSA
VL: DIVMTQSPSSLTVTAGEKVTMSCKSSQSLLNSINQKNFLTWYQQKPGQPPKLLIYWASTRESGVPDRFTGSGSGTDFTLTISSVQAEDLAIYYCQNDYTYPLTFGTGTKLELK
notes: human IgG1 chimeric antibody of the mouse clone
In assay [1], B1 displayed a dissociation constant (Kd) of 785 pM, an off-rate (koff) of 0.000198 s⁻¹ and a kon of 252000 M⁻¹ s⁻¹. Also, in the assay with human CD276 protein [2], a half-maximal response (EC50) required 0.822 µg/mL and the “MFI (Max)” value came to 5640. In the assay with human CD276 protein [3], the “EC50 of antibody induced CDC effect” value is 2740 pM and the “Top cytotoxicity (%), CDC” value is 93.5%. In assay [4], binding was put at a Kd of 415 pM, the dissociation rate constant (koff) was determined as 8.97e-05 s⁻¹ and the kon worked out at 216000 M⁻¹ s⁻¹. Further, in the assay with human CD276 protein [5], the “IC50 of indirect ADC cytotoxicity on SKOV3” value stood at 8 pM. Moreover, in the assay with human CD276 protein [6], the “EC50 of antibody induced ADCC effect on SKOV3” value came out at 0.237 µg/mL. Moreover, a half-maximal response in the assay with human CD276 protein [7] (EC50) required 2330 pM.

These data come from patent publication US20240400689A1 (ANTENGENE BIOLOGICS, published 2024).
